Experimental data as given in patent US20180086841A1 (Merck Sharp & Dohme, published 2018).

What was measured:
[1] = target: T1, Macaca mulatta CD27 (mmCD27) (Macaca mulatta (rhesus) / Macaca …, UniProt P26842 21-260 (human entry)); assay: cell-based or functional assay
T1 chain: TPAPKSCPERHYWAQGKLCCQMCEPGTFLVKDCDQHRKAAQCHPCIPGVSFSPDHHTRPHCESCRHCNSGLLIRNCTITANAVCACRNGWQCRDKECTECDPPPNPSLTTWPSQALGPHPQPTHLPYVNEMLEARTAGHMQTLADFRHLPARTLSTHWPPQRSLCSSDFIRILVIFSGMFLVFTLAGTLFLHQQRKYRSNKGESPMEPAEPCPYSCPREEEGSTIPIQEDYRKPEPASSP

[2] = target: T1, Macaca mulatta CD27 (mmCD27); assay: cell ELISA on CD27-transfected CHOK1 cells, n=2
Protocol: (§1) Purified antibodies were assayed for binding to human CD27 expressing CHOK1 cells, human CD27 A59T expressing CHOK1 cells, and cross-reactivity to rhesus CD27 expressing CHOK1 cells using a cell-based ELISA format. Human CD27 expressing CHOK1 cells, human CD27 A59T expressing CHOK1 cells, and rhesus CD27 expressing CHOK1 cells were plated in 96-well tissue-culture plates in 50 μl of DMEM/F12, 10% BCS and gentamycin (CHO-K1 media). Cells were plated at either 2×10⁴ cells/well two days prior to the assay or 4×10⁴ cells/well one day prior to the assay. Media was removed from the wells prior to the assay followed by incubation of mAb in 100 μL fresh culture medium at a starting concentration of 10 μg/mL and 8 step 1:4 serial dilutions. The antibodies were incubated for 30-60 minutes at room temperature and washed 3 times with PBS/0.05% Tween 20 using a cell ELISA washing protocol on the Biotek EL405x Select CW plate washer. […] Assay plates were washed as above and developed with TMB and stopped with TMB stop solution (KPL cat#50-85-06) or 0.1N phosphoric acid. The plate was read on a Molecular Devices VersaMax plate reader at 450 nm/650 nm. Titration curves were used to determine the half-maximal effective concentration (EC₅₀).

[3] = target: T2, human CD27 (A59T) (human, UniProt P26842 21-260); assay: cell ELISA on CD27-transfected CHOK1 cells, n=2
T2 construct: also called hCD27 (A59T); human CD27 variant p.Ala59Thr
Protocol: as §1

[4] = target: T3, human CD27 (human, UniProt P26842 21-260); assay: cell ELISA on CD27-transfected CHOK1 cells, n=2
T3 construct: also called hCD27; HsCD27
Protocol: as §1

[5] = target: T1, Macaca mulatta CD27 (mmCD27); assay: flow cytometry MFI, CD8+ T cells in rhesus peripheral blood, n=4
Protocol: (§2) Upon receipt, blood was visually confirmed to be devoid of obvious signs of lysis or clotting. […] Red blood cells (RBCs) were then lysed by incubation with 1.7 mL of Ammonium-Chloride-Potassium red blood cell lysing solution (Life Technologies, catalog no. A10492-01) for 5 minutes. The lysis step was repeated once more with 2 ml of ACK lysing solution, and then again with 300 ml of ACK lysing solution. Cells were then washed after adding 1.7 ml of phosphate buffered saline (PBS) (Hyclone, catalog no. SH30028.02). […] After a final wash in SB, samples were acquired in a LSR-Fortessa flow cytometer (BD Biosciences) using the high throughput sampler and data analyzed by FlowJo software (Tree Star Inc).

[6] = target: T1, Macaca mulatta CD27 (mmCD27); assay: flow cytometry MFI, CD4+ T cells in rhesus peripheral blood, n=4
Protocol: as §2

[7] = target: T3, human CD27; assay: flow cytometry MFI, CD8+ T cells in human peripheral blood, n=4
Protocol: as §2

[8] = target: T4, His9G-tagged human CD27 recombinant protein (human, UniProt P26842 21-191); assay: SPR Biacore 4000, antibody captured on anti-human Fc, His9G-tagged CD27 injected, 1:1 fit;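 note: Double-referenced SPR (blank anti-Fc surface and buffer injection subtracted), KD derived from association and dissociation rate constants, with human and cynomolgus CD27 as analytes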
T4 construct: In-house, transient transfection of HEK293 cells; also called Human CD27/His
Description: (§3) Flow cell spots modified with anti-human Fc antibody but lacking CD27 antibodies were used as reference. […] The chip surface was regenerated with a 30 second injection of 3M MgCl₂ after each injection cycle.
(§4) Data were double referenced by subtracting the response from a blank surface and that from a buffer injection and used for analyzing the rate constant of association (kₐ) and dissociation (kd), and the equilibrium dissociation constant KD. The resulting data sets were fitted with a Langmuir 1:1 binding model using the Biacore 4000 BIAevaluation software, version 1.0 (GE/Biacore).

[9] = target: T5, His9G-tagged cynomolgus CD27 recombinant protein (cynomolgus, limits assumed); assay: as above
T5 construct: In-house, transient transfection of HEK293 cells; also called Cyno CD27/His
T5 chain: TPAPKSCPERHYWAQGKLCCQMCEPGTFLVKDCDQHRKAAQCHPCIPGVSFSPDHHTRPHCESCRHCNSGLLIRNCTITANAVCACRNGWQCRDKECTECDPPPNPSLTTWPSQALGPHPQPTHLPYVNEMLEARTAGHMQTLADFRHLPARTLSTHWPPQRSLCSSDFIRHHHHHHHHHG
Description: as §3, §4

[10] = target: T1, Macaca mulatta CD27 (mmCD27); assay: cell-based or functional assay
[11] = target: T2, human CD27 (A59T); assay: cell-based or functional assay
[12] = target: T3, human CD27; assay: cell-based or functional assay
[13] = target: T3, human CD27; assay: flow cytometry MFI, CD8+ T cells of human PBMC, N=2 donors
[14] = target: T3, human CD27; assay: flow cytometry MFI, CD4+ T cells of human PBMC, N=2 donors
Protocol: Labeled cells were washed by re-suspending them in 150 ul of staining buffer (SB) followed by centrifugation at 300 g for 5 minutes. Cells were then resuspended in 100 ul of SB containing primary anti-CD27 antibodies at various concentrations, incubated in the dark at 4° C. for 30 minutes, followed by washing and centrifugation steps as previously described. […] Cells were incubated for 30 minutes at 4° C. in the dark, followed by washing and centrifugation steps. Next, cells were stained with a cocktail of phenotypic antibodies for surface markers (CD3, CD4, CD8, CD11b) and incubated for 30 minutes at 4° C. in the dark, followed by washing and centrifugation steps. […] Samples were acquired in a LSR-Fortessa flow cytometer (BD Biosciences) using the high throughput sampler and data analyzed by FlowJo software (Tree Star Inc).

[15] = target: T3, human CD27; assay: cell ELISA on human CD27 CHOK1 cells, hIgG1
Protocol: Purified antibodies were assayed for binding to human CD27 expressing CHOK1 cells using a cell-based ELISA format. Human CD27 expressing CHOK1 cells were plated in 96-well tissue-culture plates in 50 μl of DMEM/F12, 10% BCS (bovine calf serum) (CHO-K1 media). Cells were plated at either 2×10⁴ cells/well two days prior to the assay or 4×10⁴ cells/well one day prior to the assay. Media was removed from the wells prior to the assay followed by incubation of mAb in 100 μL fresh culture medium at a starting concentration of 10 μg/mL and 8 step 1:5 serial dilutions (hIgG4 antibodies) or starting concentration of 50 μg/mL and 8 step 1:5 serial dilutions (hIgG1 antibodies). The antibodies were incubated for 30-60 minutes at room temperature and washed 3 times with PBS/0.05% Tween 20 using a cell ELISA washing protocol on the Biotek EL405x Select CW plate washer.

[16] = target: T3, human CD27; assay: flow cytometry MFI, CD4+ T cells in human peripheral blood, n=4
Protocol: as §2

[17] = target: T6, human CD27-Fc fusion protein (human, UniProt P26842 21-191); assay: SPR Biacore T200, CD27-Fc amine-coupled, antibody injected, 1:1 Langmuir fit
T6 construct: not shown: Fc part

[18] = target: T7, human CD27 A59T-Fc fusion protein (human, UniProt P26842 21-191); assay: as above
T7 construct: not shown: Fc part
T7 chain: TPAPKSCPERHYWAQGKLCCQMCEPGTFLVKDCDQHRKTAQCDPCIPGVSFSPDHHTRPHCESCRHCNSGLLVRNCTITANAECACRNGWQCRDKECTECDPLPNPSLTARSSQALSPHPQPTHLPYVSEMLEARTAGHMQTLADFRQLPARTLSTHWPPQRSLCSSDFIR

[19] = target: T8, rhesus macaque CD27-Fc fusion protein (rhesus macaque, UniProt P26842 21-191 (human entry), limits assumed); assay: as above
T8 construct: not shown: Fc part
T8 chain: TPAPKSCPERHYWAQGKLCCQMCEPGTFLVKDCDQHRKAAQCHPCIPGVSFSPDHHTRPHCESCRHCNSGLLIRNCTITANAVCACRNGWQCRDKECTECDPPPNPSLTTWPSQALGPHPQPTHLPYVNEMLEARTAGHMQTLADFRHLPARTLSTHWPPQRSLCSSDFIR

[20] = target: T1, Macaca mulatta CD27 (mmCD27); assay: flow cytometry on transiently transfected CHO-K1 cells
[21] = target: T3, human CD27; assay: as above
Description: HsCD27 and MmCD27 were expressed on CHO-K1 by transient transfection.

B1: 131AVH6VL6-hIgG1 (antibody)
heavy: not shown
light: EIVLTQSPATLSLSPGERATLSCSASSSVSYMHWYQQKPGQAPKRWIYDTSKLASGVPARFSGSGSGTDYSLTISSLEPEDFAVYYCQQWNSYPFTFGQGTKLEIKRTVAAPSVFIFPPSDEQLKSGTASVVCLLNNFYPREAKVQWKVDNALQSGNSQESVTEQDSKDSTYSLSSTLTLSKADYEKHKVYACEVTHQGLSSPVTKSFNRGEC
notes: also called hCD27.131A VH6VL6 huIgG1
[1]
  NF-κB-luciferase reporter assay, potency against human CD27: ~7 fold
[2]
  EC50: 0.054 nM
[3]
  EC50: 0.097 nM
[4]
  EC50: 0.072 nM
[5]
  EC50: 0.22 nM
[6]
  EC50: 0.17 nM
[7]
  EC50: 0.3 nM
[8]
  Kd: 65.2 nM
[9]
  Kd: 51.5 nM
[10]
  NF-κB-luciferase reporter assay, EC50: 0.29 nM
  NF-κB-luciferase reporter assay, Emax: 2.11 fold change
[11]
  NF-κB-luciferase reporter assay, EC50: 4.72 nM
  NF-κB-luciferase reporter assay, Emax: 3.22 fold change
[12]
  NF-κB-luciferase reporter assay, EC50: 2.22 nM
  NF-κB-luciferase reporter assay, Emax: 2.96 fold change
[13]
  EC50: 0.123 nM
[14]
  EC50: 0.137 nM
[15]
  EC50: 0.155 nM
[16]
  EC50: 0.32 nM
[17]
  Kd: 5.1 nM
[18]
  Kd: 7.3 nM
[19]
  Kd: 4.3 nM

B2: hCD27.15-c4 (antibody, human IgG4 S228P, kappa, V domains shown)
VH: EVRLQQSGADLVKPGASVKLSCTASGFIIKATYMHWVRQRPEQGLEWIGRIDPANGETKYDPKFQVKATITADTSSSTAYLQLNSLTSDDTAVYYCARYAWYFDVWGAGTTVTVSS
VL: DIQMTQSPASLSASVGDTVTITCRASENIYSFLAWYHQKQGRSPQLLVYHAKTLAEGVPSRFSGSGSGTQFSLKINSLQAEDFGSYYCQHYYGSPLTFGAGTKLEVKR
notes: also called hCD27.15 (chimeric c-4); C4-hCD27.15 chimeric antibody
[20]
  binding result: no binding
[21]
  binding result: binds
